{"source": "patent US8524227B2", "about": "“Anti-IL-TIF antibodies” (ZymoGenetics, Inc., priority 2002, dated 2013)", "key": {"IL-TIF": {"molecular_target": "T1, IL-TIF (Homo sapiens, UniProt Q9GZX6)", "T1 construct": "made in house; host or cells: BHK cells", "T1 sequence (Q9GZX6 34-179)": "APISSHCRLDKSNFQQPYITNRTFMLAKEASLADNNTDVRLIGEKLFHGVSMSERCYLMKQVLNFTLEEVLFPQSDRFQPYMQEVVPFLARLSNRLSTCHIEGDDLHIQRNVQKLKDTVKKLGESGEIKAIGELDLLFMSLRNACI", "assay": "Effect of zcytor16 on IL-TIF-induced acanthosis", "format": "in vivo, mice", "settings": "for Average Acanthosis: day 8, score 0-3", "method": "Mice (female, C3H/HEJ, 8 weeks old; Jackson Labs, Bar Harbor, Me.) were divided into eight groups of eight animals each. IL-TIF was administered by constant infusion via mini-osmotic pumps, as described in example 32a. Alzet mini-osmotic pumps (model 2001; Alza corporation Palo Alto, Calif.) were loaded under sterile conditions with IL-TIF protein (A#601F, 0.22 mL) diluted in phosphate buffered saline (pH 7.0) to a concentration within the pump of 0.22 mg/mL for group 1-2 mice, 0.45 mg/mL for group 3-4 mice, 0.9 mg/mL for group 5-6 mice, or 0 mg/mL (diluent only) for group 7-8 mice. These pumps are designed to deliver their contents at a rate of 0.5 μl per hour over a period of 14 days. Using this nominal rate of infusion, dose levels were calculated to be […] and 0 μg/day for groups 7-8. For each pair of groups at a given dose level of IL-TIF, one of the groups was injected three times (days 1, 3, and 5) with 0.1 mg of human zcytor16 Fc protein (described herein) by the interperitoneal route. The other group was injected in the same fashion with vehicle (PBS).\nOn day 8 of the study, mice were euthanized and an approximately 1 cm square sample of skin surrounding the pump area was collected from each mouse. The skin was fixed in 10% neutral buffered formalin. Formalin fixed samples of skin were embedded in paraffin, routinely processed, sectioned at 5 um and stained with hematoxylin and eosin. The tissues were microscopically examined in blinded fashion by an ACVP board certified veterinary pathologist. This study was scored in a different manner than the previous example. The number of layers in the epidermis, from stratum basalis to stratum granulosum, was determined Based on the results, the sections were scored as follows: O-normal (2-3 layers), 1-mild thickening (3-4 layers), 2-moderate thickening (4-6 layers) and 3-severe thickening (>6 layers)."}, "[1]": {"assay": "Mouse collagen induced arthritis (CIA) model", "format": "in vivo, mice", "settings": "for IL-6 levels / SAA concentrations: Day 0 serum 4 hr post 25 μg LPS", "method": "Ten week old male DBA/1J mice (Jackson Labs) were divided into 3 groups of 13 mice/group. On day-21, animals were given a subcutaneous injection of 50-100 μl of 1 mg/ml chick Type II collagen formulated in Complete Freund's Adjuvant (prepared by Chondrex, Redmond, Wash.), and three weeks later on Day 0 they were given a 100 μl (25 μg) injection of LPS from E. coli 0111:B4, prepared as 250 μg/ml from a lyophilized aliquot (Sigma, St. Louis, Mo.). Zcytor16 was administered as an intraperitoneal injection 3 times a week for 4 weeks, from Day 0 to Day 25. The first two groups received either 100 or 10 μg of zcytor16 per animal per dose, and the third group received the vehicle control, PBS (Life Technologies, Rockville, Md.). Animals began to show symptoms of arthritis following the LPS injection, with most animals developing inflammation within 2-3 weeks. The extent of disease was evaluated in each paw by using a caliper to measure paw thickness, and by assigning a clinical score (0-3) to each paw: 0=Normal, 0.5=Toe(s) inflamed, 1=Mild paw inflammation, 2=Moderate paw inflammation, and 3=Severe paw inflammation as detailed below.\nAll animals were observed daily to assess the status of the disease in their paws, which was done by assigning a qualitative clinical score to each of the paws. Every day, each animal has its 4 paws scored according to its state of clinical disease. To determine the clinical score, the paw can be thought of as having 3 zones, the toes, the paw itself (manus or pes), and the wrist or ankle joint. The extent and severity of the inflammation relative to these zones was noted including observation all the toes for any joint swelling, torn nails, or redness, notation of any evidence of edema or redness in any of the paws, and notation any loss of fine anatomic demarcation of tendons or bones, and evaluation the wrist or ankle for any edema or redness, and notation if the inflammation extends proximally up the leg. A paw a score of 1, 2, or 3 was based first on the overall impression of severity, and second on how many zones were involved. The scale used for clinical scoring is shown below.\nBlood was collected throughout the experiment to monitor serum levels of anti-collagen antibodies. Animals were euthanized on Day 21, and blood was collected for serum and for CBC's. From each animal, one affected paw was collected in 10% NBF for histology and one was frozen in liquid nitrogen and stored at […] for mRNA analysis. Also, ½ spleen, ½ thymus, ½ mesenteric lymph node, one liver lobe and the left kidney were collected in RNAlater for RNA analysis, and ½ spleen, ½ thymus, ½ mesenteric lymph node, the remaining liver, and the right kidney were collected in 10% NBF for histology. Serum was collected and frozen at −80° C. for immunoglobulin and cytokine assays.\nApproximately 100 μL of peripheral blood was collected by retro-orbital bleed into serum separator tubes (Becton Dickinson). Serum was collected by centrifugation (2-3 min, 16,000×g, 4-6° C.) and stored at −20° C. until analyzed. To determine anti-collagen Ig antibody levels, NUNC plates were coated with 10 μg/mL chick type-II collagen (Chondrex, Redmond Wash.) and incubated overnight at 4° C. Plates were washed with ELISA C, blocked (5 minutes, room temperature) with Super Block (Pierce, Rockford, Ill.), and washed with ELISA C. Diluted serum samples (diluted in ELISA B 5-fold from 1:5000 to 1:625,000) were added to ELISA plates in triplicate and the plates were incubated overnight at 4° C. After incubation, the plates were washed with ELISA C, and peroxidase-labeled goat anti-mouse Ig Fc (Zymed, 1:2000 in ELISA B) was added. The plates were incubated (room temperature, 90 minutes), rinsed again using ELISA C, and HRP activity was developed using o-phenylenediamine dihydrochloride substrate (10 mL NovoD+1 tablet OPD+10 μL H2O2, Pierce). The reaction was stopped with 1N H2SO4. […]"}}}
{"molecule": "zcytor16-Fc4: soluble receptor for IL-TIF, zcytor16 fused to Fc4; IL-TIF antagonist (protein) TQSTHESLKPQRVQFQSRNFHNILQWQPGRALTGNSSVYFVQYKIYGQRQWKNKEDCWGTQELSCDLTSETSDIQEPYYGRVRAASAGSYSEWSMTPRFTPWWETKIDPPVMNITQVNGSLLVILHAPNLPYRYQKEKNVSIEDYYELLYRVFIINNSLEKEQKVYEGAHRAVEIEALTPHSSYCVVAEIYQPMLDRRSQRSEERCVEIPEPRSSDKTHTCPPCPAPEAEGAPSVFLFPPKPKDTLMISRTPEVTCVVVDVSHEDPEVKFNWYVDGVEVHNAKTKPREEQYNSTYRVVSVLTVLHQDWLNGKEYKCKVSNKALPSSIEKTISKAKGQPREPQVYTLPPSRDELTKNQVSLTCLVKGFYPSDIAVEWESNGQPENNYKTTPPVLDSDGSFFLYSKLTVDKSRWQQGNVFSCSVMHEALHNHYTQKSLSLSPGK", "values": [{"measurement": "effect on epidermal thickening", "setting": "IL-TIF; 100 μg zcytor16 (3 injections), mice treated with 5 μg IL-TIF/day", "value": "decreased the amount of epidermal thickening"}, {"measurement": "Average Acanthosis", "setting": "IL-TIF; pump 2.5 μg IL-TIF/day + 100 μg zcytor16 (3 injections)", "value": 0.8}, {"measurement": "Average Acanthosis", "setting": "IL-TIF; pump 5 μg IL-TIF/day + 100 μg zcytor16 (3 injections)", "value": 0.6}, {"measurement": "Average Acanthosis", "setting": "IL-TIF; pump 10 μg IL-TIF/day + 100 μg zcytor16 (3 injections)", "value": 1.9}, {"measurement": "Average Acanthosis", "setting": "IL-TIF; pump Vehicle + 100 μg zcytor16 (3 injections)", "value": 0.0}, {"measurement": "disease score (paw score, incident of inflammation or disease)", "setting": "[1]; 10 μg three times a week for 4 weeks", "value": "significantly reduced the disease score"}, {"measurement": "IL-6 levels", "setting": "[1]; 10 μg zcytor16", "value": "10,865+/−1478 pg/ml"}, {"measurement": "SAA concentrations", "setting": "[1]; 10 μg zcytor16", "value": "348 ± 37", "unit": "µg/mL"}, {"measurement": "levels of anti-collagen antibodies", "setting": "[1]; 100 μg or 10 μg groups vs PBS, serum ELISA", "value": "no statistically significant effects"}, {"measurement": "IL-6 levels", "setting": "[1]; 100 μg zcytor16", "value": "9651 ± 1563", "unit": "pg/mL"}, {"measurement": "SAA concentrations", "setting": "[1]; 100 μg zcytor16", "value": "381 ± 40", "unit": "µg/mL"}, {"measurement": "paw scores and measurements", "setting": "[1]; 100 or 10 μg IP 3 times a week for 4 weeks vs PBS", "value": "No statistically significant differences"}, {"measurement": "changes in body weight, CBC parameters, or anti-collagen antibody levels", "setting": "[1]; 100 or 10 μg IP vs PBS", "value": "no significant differences"}]}
